We go through three compounds from patent US20220235136A1, “METHODS AND COMPOSITIONS FOR TREATING A DISEASE OR DISORDER” (YALE UNIVERSITY, priority 2019, published 2022).

The target in assay [1] is T1, CD93 (Homo sapiens, UniProt Q9NPY3).
T1 construct: expressed in transfected cells; host or cells: 293 cells (CD93+ 293)
T1 sequence (Q9NPY3 22-652): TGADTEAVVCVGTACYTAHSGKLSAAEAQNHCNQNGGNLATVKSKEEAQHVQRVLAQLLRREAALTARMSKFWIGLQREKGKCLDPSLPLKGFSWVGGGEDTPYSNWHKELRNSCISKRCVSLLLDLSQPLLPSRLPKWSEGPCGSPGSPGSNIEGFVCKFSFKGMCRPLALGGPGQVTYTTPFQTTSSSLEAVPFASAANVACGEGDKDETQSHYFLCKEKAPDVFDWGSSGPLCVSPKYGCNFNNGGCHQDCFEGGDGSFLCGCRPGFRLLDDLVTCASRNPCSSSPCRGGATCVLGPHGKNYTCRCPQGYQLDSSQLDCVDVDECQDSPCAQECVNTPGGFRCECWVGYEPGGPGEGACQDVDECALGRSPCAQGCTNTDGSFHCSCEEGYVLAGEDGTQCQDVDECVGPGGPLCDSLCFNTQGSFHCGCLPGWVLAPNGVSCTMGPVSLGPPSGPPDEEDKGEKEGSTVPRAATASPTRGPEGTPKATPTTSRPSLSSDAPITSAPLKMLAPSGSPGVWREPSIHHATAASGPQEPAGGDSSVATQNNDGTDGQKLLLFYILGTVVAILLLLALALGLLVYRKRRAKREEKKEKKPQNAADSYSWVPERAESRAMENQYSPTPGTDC
The experiment in a line: binding of Ig fusion proteins to CD93 transfectant (flow cytometry). An excerpt:
FIGS. 10A-10B show identification of the binding domain on IGFBP7 for CD93. Each extracellular domain for IGFBP7, including insulin binding (IB). Kazal, and Ig, was swapped with the corresponding domain on IGFBPL1 using PCR cloning and fused to a C-terminal Ig. These chimeric mutants were transiently expressed in HEK293T cells and supernatants were used to stain CD93 transfectant. FIG. 10A depicts whether multiple chimeric IGFBP7 mutants bind to CD93. FIG. 10B depicts various human genes containing IB-domain constructed onto an expression vector containing Fc-Tag. Constructs were transiently transduced into HEK293T cells to produce Fc tagged fusion proteins in the supernatant. Supernatant was used to stain CD93 transfectant by flow cytometry. Binding index represents the ratio of binding MFI of CD93 transfectant to control cells.
The IGFBP7-IGFBPL1 chimeras were generated by two-step PCR. […]
Cell surface and intercellular staining and analysis by flow cytometry were followed the protocol previously described (71). Dead cells were excluded with SYTOX® (Blue Dead Cell Stain Kit (Thermo Fisher Scientific). Flow cytometric analysis was conducted with a BD FACS Calibur or a BD LSRFortessa™ cell analyzer (BD Bioscience, Franklin Lakes, N.J. USA), and then data were analyzed by FlowJo software (Tree Star Inc.)
In general terms: A flow cytometer gives signals particle by particle.

Assay [2] addresses T2, human IGF1R (Homo sapiens, UniProt P08069).
T2 construct: expressed in transfected cells; host or cells: CHO
The experiment in a line: IGFBP7-Ig binding to IGF1R transfected CHO cells (flow cytometry). The procedure:
Wild type CHO and IGF1R transfected CHO cells were stained for human IGF1R staining antibody to confirm surface IGF1R expression. At the same time, cells were incubated with IGFBP7-Ig for possible interaction by flow cytometry analysis, […]

Assay [3] has as its system HUVEC cells. The experiment in a line: HUVEC tube formation and transwell migration assay with exogenous IGFBP7 protein. Format: cell-based, human. On the procedure:
Pooled human umbilical vein ECs (HUVEC) purchased from Thermo Fisher were cultured in Medium 200 with LVES (Life Technologies). C57BL/6 mouse primary aortic ECs and the endothelium culture medium with supplement were purchased from Cell Biologics. For tube formation, HUVECs at 2×10^4 cells/ml were plated on Matrigel in 24-well plate. Image was recorded even 4-6 hours after incubation. The Transwell 6.5 mm polycarbonate membrane inserts pre-loaded in 24-well culture plates (Corning 3422, 8 um) were used in the cell migration model. HUVEC cells at 1×10^5/ml in 200 μl were loaded into each 24-well insert with 500 μl IBS-containing medium with different reagents in the lower chamber. After approximately 20 hours, the migrated cells were fixed with methanol, stained with Giemsa solution and counted under a light microscope.

The target in assay [4] is T3, CD93 binding by MMRN2 (Homo sapiens, UniProt Q9NPY3).
T3 construct: expressed in transfected cells
T3 sequence (Q9NPY3 22-652): T1 sequence (Q9NPY3 22-652)
T3 sequence (Q9H8L6 23-949 partner): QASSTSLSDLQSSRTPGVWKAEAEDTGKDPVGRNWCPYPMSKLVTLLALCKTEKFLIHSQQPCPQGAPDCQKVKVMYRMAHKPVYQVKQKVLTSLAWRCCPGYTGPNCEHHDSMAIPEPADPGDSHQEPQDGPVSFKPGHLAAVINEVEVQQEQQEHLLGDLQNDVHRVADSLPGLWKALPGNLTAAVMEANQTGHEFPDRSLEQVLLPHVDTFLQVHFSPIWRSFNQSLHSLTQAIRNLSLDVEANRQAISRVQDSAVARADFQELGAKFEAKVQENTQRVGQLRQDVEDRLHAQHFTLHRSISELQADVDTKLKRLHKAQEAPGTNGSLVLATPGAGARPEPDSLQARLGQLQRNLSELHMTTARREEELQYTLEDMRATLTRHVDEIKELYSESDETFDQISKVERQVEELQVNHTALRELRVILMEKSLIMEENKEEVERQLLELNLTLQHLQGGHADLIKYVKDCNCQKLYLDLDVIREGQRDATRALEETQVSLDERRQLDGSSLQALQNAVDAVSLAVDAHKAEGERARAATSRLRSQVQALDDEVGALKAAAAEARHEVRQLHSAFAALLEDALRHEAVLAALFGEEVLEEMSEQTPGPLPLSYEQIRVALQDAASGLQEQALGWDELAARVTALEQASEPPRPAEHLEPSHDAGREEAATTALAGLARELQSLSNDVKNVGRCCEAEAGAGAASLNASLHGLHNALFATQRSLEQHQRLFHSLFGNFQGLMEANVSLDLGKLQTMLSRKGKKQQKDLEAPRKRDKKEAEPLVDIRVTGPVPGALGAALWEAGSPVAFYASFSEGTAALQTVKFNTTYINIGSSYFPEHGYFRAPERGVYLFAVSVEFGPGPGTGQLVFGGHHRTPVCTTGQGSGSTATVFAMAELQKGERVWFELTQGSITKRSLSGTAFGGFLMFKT
The experiment in a line: MMRN2-Ig binding to CD93-expressing CHO cells in the presence of IGFBP7-His. Conditions: IGFBP7 added. The procedure: In FIG. 28A, binding of HEK293 T cells transfected to express group 14 C-type lectin molecules were stained for the binding of IGFBP7-Ig and MMRN2-Ig. In FIG. 28B. CHO cells stably expressing CD93 were stained with control or MMRN2-Ig, with or without the presence of IGFBP7-His protein. In FIG. 28C, well coated with IGFBP7-His protein were incubated with CD93-His protein before examining for MMRN2-Ig binding by ELISA. Wells coated with CD93-His protein were used as a positive control. In FIG. 28D. HEK293T cells transfected with control or CD93 construct were stained with MMRN-Ig for binding, with or without the presence of anti-mCD93 (7C10). In FIG. 28E HEK293T cells transfected to express different mouse CD93 mutants were stained with anti-CD93 (7C10), IGFBP7-Ig, and MMRN2-Ig.

Assay [5] deals with B16 melanoma. Description: subcutaneous B16 melanoma mouse tumor model. The following applies: alone or combination.
Method: For B16 tumor model, C57BL/6 mice were inoculated subcutaneously with B16 melanoma at 2×1^5 per mouse. […] CD93 mAb (300 μg i.p.) treatment was administrated on the day of randomization (day 0), day 4 and day 9. 5-FU (3.5 mg i.p.) was administrated on day 2 and day 7. Measurements of tumor size were taken every 2 or 3 days. When tumor volume was exceeding 2000 mm^3 and/or ulceration formed, tumor bearing mice were considered as death for the calculation of survival curve.
In assay [6] the test system is IGFBP7 expression in tumor endothelial cells. The following applies: 24 hours after treatment; published RNA-Seq data; cited from earlier work.

T2 sequence (P08069 31-736 limits assumed): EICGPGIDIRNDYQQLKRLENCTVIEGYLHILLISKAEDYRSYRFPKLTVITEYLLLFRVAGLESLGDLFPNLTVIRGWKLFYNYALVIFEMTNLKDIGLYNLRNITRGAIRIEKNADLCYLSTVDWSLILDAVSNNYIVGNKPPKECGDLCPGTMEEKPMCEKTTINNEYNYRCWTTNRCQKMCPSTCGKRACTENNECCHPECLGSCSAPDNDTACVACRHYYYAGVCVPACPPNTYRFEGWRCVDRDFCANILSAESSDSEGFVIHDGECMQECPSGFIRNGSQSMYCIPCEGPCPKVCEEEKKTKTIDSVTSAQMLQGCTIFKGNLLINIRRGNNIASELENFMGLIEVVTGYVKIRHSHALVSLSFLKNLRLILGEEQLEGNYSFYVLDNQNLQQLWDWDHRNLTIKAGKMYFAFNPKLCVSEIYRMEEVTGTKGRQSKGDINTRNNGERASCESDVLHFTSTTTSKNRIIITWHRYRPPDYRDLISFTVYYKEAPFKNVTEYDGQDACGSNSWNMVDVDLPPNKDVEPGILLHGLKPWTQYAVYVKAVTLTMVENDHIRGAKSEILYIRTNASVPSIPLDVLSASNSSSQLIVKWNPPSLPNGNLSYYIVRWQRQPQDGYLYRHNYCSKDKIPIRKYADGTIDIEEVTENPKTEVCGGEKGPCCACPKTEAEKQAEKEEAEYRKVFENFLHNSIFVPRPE
T2 sequence (P08069 741-1367 limits assumed): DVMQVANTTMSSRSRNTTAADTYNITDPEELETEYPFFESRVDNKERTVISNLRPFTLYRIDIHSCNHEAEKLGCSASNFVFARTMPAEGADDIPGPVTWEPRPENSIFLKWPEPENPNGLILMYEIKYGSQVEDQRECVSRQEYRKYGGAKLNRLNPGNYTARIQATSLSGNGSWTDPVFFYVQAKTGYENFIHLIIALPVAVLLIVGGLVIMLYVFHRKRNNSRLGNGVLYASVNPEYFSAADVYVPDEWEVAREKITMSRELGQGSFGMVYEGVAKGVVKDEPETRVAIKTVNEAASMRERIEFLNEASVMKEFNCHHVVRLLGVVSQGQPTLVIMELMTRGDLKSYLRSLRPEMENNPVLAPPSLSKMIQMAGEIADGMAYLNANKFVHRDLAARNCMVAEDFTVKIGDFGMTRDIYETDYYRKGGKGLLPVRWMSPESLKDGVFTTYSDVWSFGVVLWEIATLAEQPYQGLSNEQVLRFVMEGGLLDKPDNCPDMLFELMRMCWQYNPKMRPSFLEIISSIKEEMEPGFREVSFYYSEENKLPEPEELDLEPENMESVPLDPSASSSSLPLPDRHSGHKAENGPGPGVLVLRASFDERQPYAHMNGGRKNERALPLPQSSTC

Consider “IGFBP7: a secreted protein of the insulin growth factor binding protein (IGFBP) family; recombinant protein / Fc fusion”, for which the “binding to CD93 293 cells / CD93 transfectant” value in assay [1] (flow cytometry) was “strongly”. In assay [1] (transfected HEK293T cells), the “binding to group 14 C-type lectin molecules” value was “only bound to CD93”. Also, the “binding to human IGF1R transfectant” value in assay [2] is listed as “fails to bind”. In addition, the “tube formation or EC migration in CD93 knockdown HUVEC cells” value in assay [3] (CD93 siRNA) is given as “lost its effect”. In addition, in assay [3] (exogenous protein added), the “tube formation and proliferation of wild type HUVEC cells” value is “increased”. Further, the “effect on the CD93 binding by MMRN2” value in assay [4] is listed as “did not interfere”.

For `O=c1[nH]cc(F)c(=O)[nH]1` [5-FU, 5-fluorouracil], in assay [5], the B16 tumor growth entry is reported as “modestly inhibited”.

Regarding aflibercept: a VEGF inhibitor, the “IGFBP7 in tumor ECs” value in assay [6] is on record as “significantly inhibited”.
